The target in this assay is gp53C, C-terminal fragment of gene product 53 (gp53) of Acinetobacter baumannii bacteriophage AP22 (Acinetobacter baumannii bacteriophage AP22). The assay is described as follows: crystal structure.

“gp53C, C-terminal fragment of gene product 53 (gp53) of Acinetobacter baumannii bacteriophage AP22 (domain or fragment)”: the stoichiometry N is 3.

Values taken from doi:10.1101/518761.
